Data on 1 protein can be found in patent publication US20050048594.

This series has as its target T1, peptide ARKRERAF(3-CF3)SFGHHA.
T1 chain: ARKRERAFSFGHHA

B1: serine/threonine p21-activated kinase PAK4 (protein)
chain: SPQREPQRVSHEQFRAALQLVVDPGDPRSYLDNFIKIGEGSTGIVCIATVRSSGKLVAVKKMDLRKQQRRELLFNEVVIMRDYQHENVVEMYNSYLVGDELWVVMEFLEGGALTDIVTHTRMNEEQIAAVCLAVLQALSVLHAQGVIHRDIKSDSILLTHDGRVKLSDFGFCAQVSKEVPRRKSLVGTPYWMAPELISRLPYGPEVDIWSLGIMVIEMVDGEPPYFNEPPLKAMKMIRDNLPPRLKNLHKVSPSLKGFLDRLLVRDPAQRATAAELLKHPFLAKAGPPASIVPLMRQNRTR
With B1, the “phosphorylation of the peptide followed by 19F NMR (150 nM PAK4)” value was “the reaction in the presence of PAK4 results in the appearance of a 19F signal with a chemical shift similar to the shift of a phosphorylated peptide” and the “speed of the enzymatic reaction relative to AKT1” value was “The speed of the enzymatic reaction of PAK4 is only 1/22 of the speed of AKT1”.
